From the nanobody polyreactivity screen of Harvey et al. (2022)

Test: yeast display, Sf9 membrane polyspecificity reagent, FACS + sequencing; frameworks hold sequencing errors
Procedure, shortened: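 Polyreactivity labels are assigned by the sorting gate from which each nanobody was recovered. The gates were low and high (top ~1%), set on anti-HA fluorescence for expression and streptavidin fluorescence for reagent binding. Before sorting, galactose-induced (36–48 hours) yeast display cells were stained for 1 hour at 4 °C with 10% biotinylated, detergent-solubilized Sf9 membrane reagent.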

| Sequence | polyreactivity (PSR sort gate) |
| --- | --- |
| QVQLVESGGGLVQAGGSLRLSCAASGRTFGPYTMGGYIQAPGKEREFVAAIRSRGDTTYYADSVKGRFTISRDNAKNTVYLQMNSLKPEDTAVYYCAARSYFLVAGSRYDYWGQGTQVTVSS | high polyreactivity |
| QVQLVESGGGLVQAGGSLRLSCAASGSIFSINTMGWYRQAPGKERELVAAISRTGGSTYYADSVKGRFTISRDNAKNTVYLQMNSLKPEDTAVYYCAARKYADGRIFYYWGQGTQVTVSS | high polyreactivity |
| QVQLVESGGGLVQAGGSLRLSCAASGLTFIKYTMGWSRQAPGKERELVATIRASTGSTYYADSVKGRFTISRDNAKNTVYLQMNSLKPEDTAVYYCATRSYPPYYGLYGGRAYNYWGQGTQVTVSS | high polyreactivity |
| QVQLVESGGGLVQAGGSLRLSCAASGYTFAIYAMGWYRQAPGKERELVAAITWNGGSTYYADSVKGRFTISRDNAKNTVFLQMNSLKPEDTAVYYCAADYWSGGYDYWGQGTQVTVSS | low polyreactivity |
| QVQLVESGGGLVQAGGSLRLSCAASGSTFDVYAMGWYRQAPGKERELVAAITSGGTTNYADSVKGRFTISRDNAKNTVYLQMNSLKPEDTAVYYCAKDSRNVYWDYGYWGQGTQVTVSS | low polyreactivity |
| QVQLVESGGGLVQAGGSLRLSCAASGSNFVTYAMGWYRQAPGKERELVAAISYSGGSTYADSVKGRFTISRDNAKNTVYLQMNILKPEDTAVYYCNTDTSVDVRFDYWGQGTQVTVSS | low polyreactivity |
| QVQLVESGGGLVQAGGSLRLSCAASGIYPYYAMGWYRQAPGKERELVATISSADGPKYADSVKGRFTISRDNAKNTVYLQMNSLKPEDTAVYYCNAYVWSWHDYWGQGTQVTVSS | low polyreactivity |
| QVQLVESGGGFVQAGGSLRLSCAASGIIFDYDAMGWYRQAPGKERELVAAISKRGGSTYYADSVKGRFTISRDHAKNTVYFQMNSLKPEDTAVYYCAAVYAREAKRYDYWGPGTQVTVSS | high polyreactivity |
| QLQLVESGRGLVQAGGSLRISCDASGSTFRRNAMGWYRPAPGKERELVAAITRGGGSTYYADSVKGRLTISRDNAKNTVYLQMNSLKPDDTAVYYCAAQISATRETMDYWGQGTQVTVSS | high polyreactivity |
| QVQLQDSGGGLVQAGGSLRLSCAASGTISYRYRMGWYRQAPRKEVELVAGIRVGSITYDADSVKGRFTISRDNAKNTVYLQMNSLKPEDIAVYYCAVYQKSYRFFPYWGQGTQVTVSS | high polyreactivity |
| QVQLVESGGGLVQAGGSLRLSCAASGIIFGRYAMGWYRQAPGKERELVAVINWSGDSTYYADSVKGRFTISRDNAKNTVYLQMNSLKPEDTAVYYCAALNYKGRYRQYYWGQGTQVTVSS | high polyreactivity |
| QDQLVESGGGLVQAGGSLRLSCAASGLIFLYPMGGYRQAPGKERELVAAISNGGSTYYADSVKGRFTISRDNAKNTVYLQMNSLKPEDTAVYFCAAKGVRRRYRPDMYYWGQGTQVTVSS | high polyreactivity |
| QVQLVESVGGLVQAGGSLRLSCAASGSIFTYNAMGWYRQAPGKERELVAAITTSGDSTYYADSVKGRFTISRDNAKNTVYLQMNSLKPEDTAVYYCNADWSWYNYYDFDYWGQGTQVTVSS | low polyreactivity |
| QVQLVESGGGLVQAGGSLRLSCAASGSTFRGYAMGWYRQAPGKERELVAAITFRGGSTYYADSVKGRFTISRDNAKNTVFLQMNSLKPEDTEVYYCYVRIYGYDYWGQGTQVSVSS | high polyreactivity |
| QVQLVESGGGLVQAGGSLRLSCAASGRTFYPYAMGWYRQAPGKEREFVAVINRSVGSPYYADSVNGRFTISRDNAKNTVYLQMNSLKPEDTAVYYCAAREPLSYYVGGDYWGQGTQVTVSS | low polyreactivity |
| QVQLVESGGGLVQAGGSLRLSCAASGITFPGNAMGWYRQAPGKERELVAGISDGDSTNYADSVKARFTISRDNAKNTVYLQMNSLKPEDTAVYYCARDTELYVRWLDYWGQGTQVTVSS | low polyreactivity |
| QVQLVESGGALVQAGGSLRLSCAASGSTFSWYAMGWYRQAPGKERELVAAITTRGGSTYYADSVKGRFTISRDNAKNTVYLQMTRLKPEDTAVYYCAADDGWDFGRGRYDYWGQGTQVTVSS | low polyreactivity |
| QVQLVESGGGLVQAGGSLRLSCAASGLTFVRYTMGWYRQAPGKVRELVAAITWSGGSTYYADSVKGRFTISRDNAKNTVYLQMNSLKPQDTAVYYCAARHRYWYGVTVDYWGQGTHVTVSS | high polyreactivity |
| QVQLVESGRGLVQAGGTLRLSCAASGSTFGSYAMGWYRQAPGKEREFVATISRSGGRTYYAASVKGRFTISRDNAKNTVYFQMNSLKPEDTAVYYCATDRRYWIGYDYWGPGTQVTVSS | high polyreactivity |
| QVQLVESGGGLVQAGGSLRLSCAASGRTFISNVMGWYRQAPGKERELVAAIRSSGRTYYADSVKGRFTISRDNAKNTVYFQMNSLKPEDTAVYYCAAPGGLLGSGYWGQGTQVTVSS | low polyreactivity |
| QVQLVESGGGLVEAGGSLRLSCAASGNIFVNYAMEWYRQAPGKERELVAAISWSGGSTYYADSVKGRFTISRDNAKNTVYLQINRLKAEDTAVYYCAADYTGHLYYYWVQGTQVTVSS | low polyreactivity |
| QVQLVESGGGLVQAGGSLRLSCAASGLIFRPYAMGWSRQAPGKERELVAAITSGGSTDYADSVKGRFTISRDNAKNTVYLQMNSLKPEDTAVYYCNADIYPHDGYPWQGDYDYWGQGTQVTVSS | low polyreactivity |

| Sequence | polyreactivity (PSR sort gate) |
| --- | --- |
| QVQRVESGGGLVQAGGSLRLSCAASANTYLNAMGWYIQAPGKESELVAAISKGGADTYYADSVKGRFTISRDNAKNTVYLQMTSLIPEDSAVYYCADVGYADGWWVDYPWTYDYWGQGTQVTVSS | low polyreactivity |
| QVQLVESGGGLVQAGGSLRLSCAASGSIFGEYVRGWYREAPGKERELVADISWRDGDTYYADSEKGRFTISRDNAKNTVYLQMNSLKPEDTAVYYCAADVIVPESYGYWPLSYYYWGQGTQVTVSS | low polyreactivity |
| QLQLVESGGGLVQAGGSLRLSCAASGSTYATYTMGWYRQAPGKERELVAAISVSGSRTYYADSVKGRFTISRDNAKNTVYLQMNSLKPEDTAVYYCNADPPVKLYLYDYWGQGTQVTVSS | high polyreactivity |
| QVQLEESGGGLVQAGASLRLSCAASGRTIAHYAMGWYRQAPGKERELVAAITRGGGTYYADSVKGRFTISRDNAKHSVYLQMNSLKPEDTAVYYCAADHSRYGYPAKTMDYWGQCTQVTVSS | low polyreactivity |
| QVQLVESGGGLVQAGGSLRLSCAASGRTFFIYAMGWYRQAPGKERELVAAITRGGTNYADSVKGRFTISRDNAKNTVYLQMNSLKPEDTAVYYCYTYTYAGYNYWGQGTQVTVSS | high polyreactivity |
| QGQLVESGGGLVQAGGSLRLSCAASGRIFAGNAMGWYRQAPGKDRELVAAISKSGRSTYYADSVKGRFTISRDNAKNTVYLQMNSLKPEDTAVYYCAKLYYPVSDQYDYYYWGQGTQVTVSS | low polyreactivity |
| QVQLVESGGGLVQAGGSLRLICAAYGSTFKQYAMGWYRPAPGKERELVAAITRGGRTYYADSVKGRFTISRDNAKNTVYLQMNSLKPEDTAVYYCNAQSWRRYGHFYYWGQGTQVTVSS | high polyreactivity |
| QVQLVESGGGLVQAGGSLRLSCAASGRILGKYAMGWYRQAPGKERELVAAIRLRGGSPYYADSVKGRFTISRDNAKNTVYLQMNSLKPDDTAVYYCAARYWDRSQAYNYWGQGTQVTVSS | high polyreactivity |
| QVQLVESGGGLVQAGGSLRLSCAASGRTFWMNAMGWYRQATGKERELVATISSSSGSTTYADSVKGRFTISRDNAKNTVYLQMNSLKPEDTAVYYCNVDDPFYSGVVEFDYWGQGTQVTVSS | low polyreactivity |
| QDQLVDSGGGLDQAGGSLRLSCAASGGTFSSYDMGWYRQEPGKERELLADISWSGSSTDYADSVKGRYTISRDNAKNTVYLQLTSLKPEDTAVYYCAARPISFPYLGRNGYWGQGTQVTVSS | low polyreactivity |
| QVQLVESGGGLVQAGGSLRLSCAASGSTLEFNARGWSRQAPGKERELVAVINRSDGSTYYADSVKGRFTISRDNAKNTVYLQMNSLKPEDTAVYYCAADRHQVSVISTEDYWGQGTQVTVSS | low polyreactivity |
| QVQLVESGGGLVQAGGSLRLSCAASGSTFSRYAMGWYRQAPGKERELVAAISSRGGSTYYADSVKGRFTISRDNAKNTVYLQMNSLKPEDTAVYYCNALSSYQNHVYPYDYWGQGTQVTVSS | high polyreactivity |
| QVQLVESGGGLVQAGGSLRLSCAASGRTFFYNAMGWYRQAPGKERELVAAISSGGGSTYYADSVKGRFTISRDNAKNTVYLQMNSLKPEDTAVYYCNAYKGQTGGGGRYGYWGQGTQVTVSS | high polyreactivity |
| QVQLVESGGGLVQAGGSLRLSCAASGYIFRGYVMGWYRQAPGKERELVAAITSSGGSTYYADSVKGRFTISRDNAKNTVYLQMISLKPEDTAVYYCAARGYSPHYYWGQGTQVTVSS | high polyreactivity |
| QVQLVESGGGLVQAGGSLRLSCAASGFTFRRYAMGWYRQAPGKETELVAVITTAGSTNYADSVKGRFTISRDNAKNTVHLQMNSLIPEDTAVYYCATDNGTRKRRYDYWGQGTQVTVSS | low polyreactivity |
| QVQLVESGGGLVQAGGSLRLSCAASGIIFRGNVMGWYRQAPGKERELVAAISGSGGRTYYADSVKGRFTISRDNAKNTVYLQMNSLKPEVTAVYYCNADKAIRYDYWGQGPQVTVSS | high polyreactivity |
| QVQLVESGGGLVQAGGSLRLSCAASGYIFTYNALGWSRQAPGKDRELVAAISSGHGRTYYADSVKGRFTISRDHAQNTVDLEMNSLKPEDTAVYYCNASRVVYRQAYLYGYDYWGQGTQVTVSS | low polyreactivity |
| QVQLVESGGGLVQEGGSLRLTCAASGIIFTINAMGWYRQAPGKERELVAAIYWGTGTTYYADSVKGRFTISRDNAKNTVYLQMNSLKPEDTAVYYCAADGYDTYGYWGQGTQVTVSS | low polyreactivity |
| QVQLVESGGGLVQAGGSLRLSCAASGNNFGNNAMGWYRQAPGKERELVAAISSSGTSTYYADSVKGRFTISRDNAKNTVYLQMNSLKPEDTSVYYCNADPLPYDGYYDYDYWGQGTEVTVSS | low polyreactivity |
| QVQLVESGGGLVQAGGSLRLSCAASGSTFAANAMGWYRPAPGKERELDAAITSSGGSTYYADSVKGRFTISRDNAKNTVYLQMISLKPEDTAVYYCNKDIERYVRIYDSWGQGTQVTVSS | low polyreactivity |
| QVQLVESGGGLVQAGGSLRLSCAASGITFYGYVMGWYRQAPGKERELVAAISVRGGSTYYADSVKGRFTISRDNAKNTVYLQMNSLKPEDTAVYYSAAWSYAYYYRLRYVSHDYWRQGTQVTVSS | high polyreactivity |
